Values of other authors as cited in paper PMC3036710.

Legend:
Experiment in all cases: solid-phase binding
[1] = biological target: CML-bovine serum albumin (Bos taurus) (UniProt P02769)
[2] = biological target: HMGB-1 (Homo sapiens) (UniProt P09429)
[3] = biological target: S100b calgranulin (Homo sapiens) (UniProt P04271)
UniProt P04271, sequence (P04271 2-92): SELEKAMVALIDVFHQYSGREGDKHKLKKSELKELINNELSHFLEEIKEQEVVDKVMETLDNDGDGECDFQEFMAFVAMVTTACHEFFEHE

UniProt P02769, sequence (P02769 25-607): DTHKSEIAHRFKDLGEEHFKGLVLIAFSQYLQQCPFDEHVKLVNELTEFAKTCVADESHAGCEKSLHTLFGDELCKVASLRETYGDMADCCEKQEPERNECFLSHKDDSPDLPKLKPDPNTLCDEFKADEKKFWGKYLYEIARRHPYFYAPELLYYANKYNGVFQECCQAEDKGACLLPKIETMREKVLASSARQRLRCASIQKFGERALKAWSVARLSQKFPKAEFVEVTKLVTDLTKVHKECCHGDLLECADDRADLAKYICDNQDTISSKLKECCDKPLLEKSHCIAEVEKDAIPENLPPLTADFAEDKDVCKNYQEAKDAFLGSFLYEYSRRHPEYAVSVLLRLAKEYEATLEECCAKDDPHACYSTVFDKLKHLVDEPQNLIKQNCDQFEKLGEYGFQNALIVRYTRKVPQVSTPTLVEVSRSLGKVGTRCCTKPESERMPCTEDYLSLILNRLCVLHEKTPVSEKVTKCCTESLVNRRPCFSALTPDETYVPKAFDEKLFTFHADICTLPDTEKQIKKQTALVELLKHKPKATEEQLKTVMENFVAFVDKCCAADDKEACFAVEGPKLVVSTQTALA
UniProt P09429, sequence (P09429 whole entry): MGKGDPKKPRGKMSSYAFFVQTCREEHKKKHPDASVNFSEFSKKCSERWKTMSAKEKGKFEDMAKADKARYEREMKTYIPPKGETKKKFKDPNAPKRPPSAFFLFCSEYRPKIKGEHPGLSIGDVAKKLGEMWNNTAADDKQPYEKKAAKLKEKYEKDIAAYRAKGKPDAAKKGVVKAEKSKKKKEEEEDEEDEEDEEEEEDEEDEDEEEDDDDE

Kd [1]: 0.43 nM
Kd [2]: 0.64 nM
Kd [3]: 0.45 nM
Substance: RAGE (from UniProt Q15109)
